Measured values reported in the supplement of paper PMC9170038.

Tested on: MS2 coat protein
Experiment: apparent KD of MS2 coat protein; designed switch direction (-1 OFF switch, 1 ON switch): 1; higher = weaker reporter binding
How it was run: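 SNAP-549-labelled MS2 coat protein was titrated, doubling from 0.7 or 1.5 nM to 3 µM, over designed RNA switches transcribed on Illumina chips by stalled E. coli RNA polymerase. Runs were done without input, with 200 uM small-molecule ligand, or with an oligonucleotide input. Apparent KD is the per-design median over clusters of curve-fitted normalised fluorescence.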

[1] = input ligand: microRNA oligo, concentration not stated
[2] = Eterna round: R95, input ligand: FMN 200 uM
[3] = Eterna round: R95, input ligand: microRNA oligo, concentration not stated
[4] = Eterna round: R95, input ligand: none

Sequence | apparent KD of MS2 coat protein (input ligand: FMN 200 uM) | apparent KD of MS2 coat protein [1] | apparent KD of MS2 coat protein (input ligand: none) | apparent KD of MS2 coat protein [2] | apparent KD of MS2 coat protein [3] | apparent KD of MS2 coat protein [4]
UGGCUCAGACUAGGAUAUAUGCGAUCACAUGAGGAUCACCCAUGUCUCGAGCUUCGGCUCGAGGCAUAGAAGGAGUCUGAGCCA [SSNG2/4-D2] (Eterna round: R96, puzzle: Same State NG 2) | 14.4 nM | 34.6 nM | 56.5 nM |  |  | 
UGGCUCAGAGCAGGAUAUACGUGGUCACAUGAGGAUCACCCAUGUCUCGAGCUUCGGCUCGAGGCGUAGAAGGGCUCUGAGCCA [SSNG2/6-B2] (Eterna round: R96, puzzle: Same State NG 2) | 110 nM | 187 nM | 305 nM |  |  | 
UGGCUGGUGCUAGGAUAUGCAUGAGGAAUCCUCGUAGAAGGAGCACGACAUGAGGAUCACCCAUGUAGCCGUCCGUAGACGGCU [salish99_SSNG1_r04_009] (Eterna round: R96, puzzle: Same State NG 1) | 98.7 nM | 26.3 nM | 91.8 nM |  |  | 
UGGUACAUGGGAGGAUAUCUCAUGGUGACAUGAGGAUCACCCAUGUAGUUGGACCGGAAACGGUGAGAGAAGGCCCAUGUACCU [JL SSNG1 3.74] (Eterna round: R96, puzzle: Same State NG 2) | 72.1 nM | 68.3 nM | 95.9 nM |  |  | 
UGGUACAUGGGAGGAUAUCUCGUAGAGACAUGAGGAUCACCCAUGUAGAUGGCCGGUAACCGGGAAGAGAAGGCCCAUGUACCU [JL SSNG1 3.66] (Eterna round: R96, puzzle: Same State NG 2) | 203 nM | 56.1 nM | 82.6 nM |  |  | 
UGGUACAUGGGAGGAUAUGGAGUUGAGACAUGAGGAUCACCCAUGUUAUAAAAGCCGAGAGGCAACUAGAAGGCCCAUGUACCU [JL SSNG1 3.92] (Eterna round: R96, puzzle: Same State NG 2) | 10.2 nM | 49.9 nM | 62.9 nM |  |  | 
UGGUACAUGGGAGGAUAUGGGCAAGAGACAUGAGGAUCACCCAUGUUAUAAAAGCCGAGAGGCAUCUAGAAGGCCCAUGUACCU [JL SSNG1 3.90] (Eterna round: R96, puzzle: Same State NG 2) | 14.6 nM | 38.5 nM | 55.4 nM |  |  | 
UGGUACAUGGGAGGAUAUGGGUUGAUGACAUGAGGAUCACCCAUGUUAAAUAUGCCGAGAGGCAACUAGAAGGCCCAUGUACCU [JL SSNG1 3.99] (Eterna round: R96, puzzle: Same State NG 2) | 62.7 nM | 1320 nM | 1080 nM |  |  | 
UGUAAACAUGAGGAUCACCCAUGUAAUAUAAUGGGAGGAUAUCUGAAUUAAUUAAAUUAAGGAGAAGGCCUAAUGU [Mat - Same State 1 - Mod of Eli - D47] (puzzle: Same State 1) |  |  |  | 53.2 nM | 288 nM | 482 nM
UGUCCAGCCUGAGCUGGACAAAAGCAUGUACAUGAGGAUCACCCAUGUUCAUGUACAAGCUUUUUGCUCGUCUUAGA [salish99_208a_r3_064] (puzzle: Sensor for hsa-mir-208a) |  |  |  | 480 nM | 15.8 nM | 587 nM
UGUUAGUAGACAGGAUAUUGAAUGUUAAGUAUUAACAUGAGGAUCACCCAUGUAUUAGAUUGGUACAAGAAGGGUCAAGUUUGU [JR_SSNG2_Sub012] (Eterna round: R96, puzzle: Same State NG 2) |  | 242 nM |  |  |  | 
UGUUGUAUUACAGGAUAUCUAGUAUUGUUAUUUAGAGAAGGGUAUUCACAUGAGGAUCACCCAUGUAUAUACGAGGAAGUUGUG [JMF's solution 40] (Eterna round: R96, puzzle: Same State NG 1) |  | 28.8 nM |  |  |  | 
UGUUGUAUUACAGGAUAUCUAUGAUUUUUGUUUAGAGAAGGGUAUUCACAUGAGGAUCACCCAUGUAUAUACGAGGAAGUUGUG [JMF's solution 66] (Eterna round: R96, puzzle: Same State NG 1) |  | 42.4 nM |  |  |  | 
UGUUGUAUUACAGGAUAUCUAUUAAUUUUAUUUAGAGAAGGGUAUUCACAUGAGGAUCACCCAUGUAUAUACGAGGAAGUUGUG [JMF's solution 13] (Eterna round: R96, puzzle: Same State NG 1) |  | 38.7 nM |  |  |  | 
UGUUGUAUUACAGGAUAUCUAUUAGUUUCAUUUAGAGAAGGGUAUUCACAUGAGGAUCACCCAUGUAUAUACGAGGAAGUUGUG [JMF's solution 95] (Eterna round: R96, puzzle: Same State NG 1) | 55 nM | 44.4 nM | 59.6 nM |  |  | 
UGUUGUAUUACAGGAUAUCUAUUAUUUUUAUUUAGAGAAGGGUAUUCACAUGAGGAUCACCCAUGUAUAUACGAGGAAGUUGUG [JMF's solution 6] (Eterna round: R96, puzzle: Same State NG 1) |  | 42.7 nM |  |  |  | 
UGUUGUUACGCAGGAUAUGGUCACAUGAGGAUCACCCAUGUAUUGUCGAUGCUAUGUGGAUUUGAUCAGAAGGGCGGGUUAACA [SameState NG2 #100] (Eterna round: R96, puzzle: Same State NG 2) | 63.8 nM | 88.9 nM | 103 nM |  |  | 
UGUUUGUUGUGAGGAUAUACGUACACCCUACAUGAGGAUCACCCAUGUUGUUCCCUUGAUUGUUGGUAGAAGGCACUUGGUUAU [JR_SSNG2_Sub049] (Eterna round: R96, puzzle: Same State NG 2) | 216 nM | 122 nM | 118 nM |  |  | 
UUAAUAAAGUAAGGAUAUACAUGAGGAUCUCUCGUAGAAGGUACUAUACAUGAGGAUCACCCAUGUGCCGGUCCGUAGACUGGA [Mat - Same State NG 1 - JL mod - D7] (Eterna round: R96, puzzle: Same State NG 1) |  | 124 nM |  |  |  | 
UUAAUGAAGUAAGGAUAUACAUGAGGAUCACUCGUAGAAGGUACUAAACAUGAGGAUCACCCAUGUACCGGUCCGUAGACUGGA [JL SSNG1 1.01] (Eterna round: R96, puzzle: Same State NG 1) | 472 nM | 157 nM | 572 nM |  |  | 
UUAAUGAUGAAAGGAUAUACAUGAGGAAUUCUCGUAGAAGGUUCAUGACAUGAGGAUCACCCAUGUAUCGCUCCGUAGAGCGUA [JL SSNG1 1.13] (Eterna round: R96, puzzle: Same State NG 1) | 713 nM | 38.4 nM | 82.6 nM |  |  | 
UUAAUGAUGAUAGGAUAUACAUGAGGAAUCCUCGUAGAAGGAUCAUGACAUGAGGAUCACCCAUGUAACGCUCAGAAGAGCGUA [Mat - Same State NG 1 - JL mod - D42] (Eterna round: R96, puzzle: Same State NG 1) | 205 nM | 37 nM | 78.3 nM |  |  | 
UUAAUGAUGUAAGGAUAUACAUGAGGAUUUCUCGUAGAAGGUACAAGACAUGAGGAUCACCCAUGUAUCGCUCCGUAGAGCGUA [JL SSNG1 1.10] (Eterna round: R96, puzzle: Same State NG 1) | 652 nM | 101 nM | 287 nM |  |  | 
UUAAUUAAUUAAUUAUACAUGAGGAUCACCCAUGUAAGUGAUCAGGAUAUCAGCUCGAAUAGAGCUGAGAAGGGAUCCAUGUAA [SSNG3/14-A1] (Eterna round: R96, puzzle: Same State NG 3) |  | 72.7 nM |  |  |  | 
UUAAUUUACUGAGGAUAUCGUGUCGACUGAGUUGACAUGAGGAUCACCCAUGUGAGAAGUGGUAUCGAGAAGGCAGUUUUCUUA [JR_SSNG2_Sub025] (Eterna round: R96, puzzle: Same State NG 2) | 17.8 nM | 82 nM | 102 nM |  |  | 
UUAGAAUACGCAGGAUAUCGAUGAUUGAUAGUACGAGAAGGGCGAACAUGAGGAUCACCCAUGUAUAUUAAUUUGAGUUUGAAU [JR_SSNG1_Sub076] (Eterna round: R96, puzzle: Same State NG 1) | 69.4 nM | 120 nM | 214 nM |  |  | 
UUAGUCAUGUAAGGAUAUGCAGCCGAAACGGCUGCAGAAGGUACUAUAAUUACAUGAGGAUCACCCAUGUUAUAAAAUAAAUAU [Mat - Same State NG 1 - JL mod - D63] (Eterna round: R96, puzzle: Same State NG 1) | 22.9 nM | 25.6 nM | 48 nM |  |  | 
UUAUAACAUGAGGAUCACCCAUGUCAACAAAGUCGAGGAUAUGGGCAAUUAUUAUUAGAACCAGAAGGCGAAAAUU [Mat - Same State 1 - Mod of UCT - D29] (puzzle: Same State 1) |  |  |  | 52.1 nM | 227 nM | 587 nM
